Test [1] deals with T1, Rat tail tendon type I collagen (rat, UniProt P02454 152-1207; P02466 86-1125). Description: solid-phase collagen-binding assay, anti-His detection, one-site binding model.
Test [2] concerns the target T1, Rat tail tendon type I collagen. Description: cell-based or functional assay.

T1 sequence (P02454 152-1207 limits assumed, chain 1 of 2): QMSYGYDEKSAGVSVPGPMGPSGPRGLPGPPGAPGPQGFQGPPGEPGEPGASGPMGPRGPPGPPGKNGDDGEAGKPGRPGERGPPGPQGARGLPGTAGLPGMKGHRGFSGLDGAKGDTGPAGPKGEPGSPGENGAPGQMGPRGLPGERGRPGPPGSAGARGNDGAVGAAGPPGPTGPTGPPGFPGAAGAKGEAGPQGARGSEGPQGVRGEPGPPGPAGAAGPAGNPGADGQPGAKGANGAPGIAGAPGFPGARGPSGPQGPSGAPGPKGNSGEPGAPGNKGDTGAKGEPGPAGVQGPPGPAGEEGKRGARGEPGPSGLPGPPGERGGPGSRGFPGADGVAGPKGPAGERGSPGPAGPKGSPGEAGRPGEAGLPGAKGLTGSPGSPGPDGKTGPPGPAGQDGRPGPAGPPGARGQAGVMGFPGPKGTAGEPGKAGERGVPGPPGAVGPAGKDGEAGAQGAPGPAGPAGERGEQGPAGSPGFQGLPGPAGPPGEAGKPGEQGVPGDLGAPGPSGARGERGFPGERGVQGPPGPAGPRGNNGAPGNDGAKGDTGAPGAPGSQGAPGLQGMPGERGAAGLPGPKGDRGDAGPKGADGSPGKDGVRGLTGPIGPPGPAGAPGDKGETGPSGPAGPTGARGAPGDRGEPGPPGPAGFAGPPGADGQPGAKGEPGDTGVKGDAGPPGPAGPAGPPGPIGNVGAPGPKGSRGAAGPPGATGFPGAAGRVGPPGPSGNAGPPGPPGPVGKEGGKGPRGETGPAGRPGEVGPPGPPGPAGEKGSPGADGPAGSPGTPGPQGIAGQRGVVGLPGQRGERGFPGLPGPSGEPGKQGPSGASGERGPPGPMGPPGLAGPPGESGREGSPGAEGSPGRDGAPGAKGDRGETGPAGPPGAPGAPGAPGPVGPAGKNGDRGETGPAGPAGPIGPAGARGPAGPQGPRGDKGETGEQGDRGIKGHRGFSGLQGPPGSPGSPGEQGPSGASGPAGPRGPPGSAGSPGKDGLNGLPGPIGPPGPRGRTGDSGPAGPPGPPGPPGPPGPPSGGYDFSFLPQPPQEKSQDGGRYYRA
T1 sequence (P02466 86-1125 limits assumed, chain 2 of 2): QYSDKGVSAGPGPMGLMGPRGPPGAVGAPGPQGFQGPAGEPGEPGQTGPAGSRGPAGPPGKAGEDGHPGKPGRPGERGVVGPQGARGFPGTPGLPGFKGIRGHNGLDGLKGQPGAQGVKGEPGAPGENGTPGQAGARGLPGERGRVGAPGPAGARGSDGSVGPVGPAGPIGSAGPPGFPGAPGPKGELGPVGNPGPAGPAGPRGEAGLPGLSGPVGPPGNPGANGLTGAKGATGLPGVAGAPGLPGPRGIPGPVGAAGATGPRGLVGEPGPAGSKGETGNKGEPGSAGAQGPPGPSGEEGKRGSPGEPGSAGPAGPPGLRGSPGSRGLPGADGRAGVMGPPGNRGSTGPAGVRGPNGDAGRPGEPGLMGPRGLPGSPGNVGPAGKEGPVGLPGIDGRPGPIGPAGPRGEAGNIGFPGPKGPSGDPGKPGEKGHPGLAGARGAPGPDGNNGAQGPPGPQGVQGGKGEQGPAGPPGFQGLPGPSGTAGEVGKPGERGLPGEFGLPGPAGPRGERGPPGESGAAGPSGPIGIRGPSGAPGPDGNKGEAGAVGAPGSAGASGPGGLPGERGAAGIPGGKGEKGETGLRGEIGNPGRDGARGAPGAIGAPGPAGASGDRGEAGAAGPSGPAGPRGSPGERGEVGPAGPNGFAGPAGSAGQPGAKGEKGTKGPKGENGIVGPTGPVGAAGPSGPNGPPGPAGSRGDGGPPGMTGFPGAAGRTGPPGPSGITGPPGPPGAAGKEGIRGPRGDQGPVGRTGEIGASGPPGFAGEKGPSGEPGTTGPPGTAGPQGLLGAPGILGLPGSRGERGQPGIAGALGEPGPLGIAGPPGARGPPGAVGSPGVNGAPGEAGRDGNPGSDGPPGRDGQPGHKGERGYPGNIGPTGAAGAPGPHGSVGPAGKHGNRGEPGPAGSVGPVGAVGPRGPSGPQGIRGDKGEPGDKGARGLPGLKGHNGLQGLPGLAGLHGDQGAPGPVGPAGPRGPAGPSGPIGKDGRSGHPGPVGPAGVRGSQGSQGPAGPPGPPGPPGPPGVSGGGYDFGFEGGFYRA

“rBSP(1-75) (from UniProt P13839 1-75) (peptide)”: the Kd in test [1] was found to be 4.04 nM.
Regarding “rBSP(1-100) (from UniProt P13839 1-100) (peptide)”, the Kd in test [1] turned out to be 5.64 nM.
The same measure, in the same setting: the figure for “rBSP(19-100) (from UniProt P13839 19-100) (peptide)” is 50.3 nM.

B1: Rat recombinant BSP (rBSP) (other)
chain: FSMKNFHRRIKAEDSEENGVFKYRPRYFLYKHATYFYPPLKRFPVQGGSDSSEENGDGDSSEEEGEEEETSNEEENNEDSEGNEDQEAEAENATLSGVTASYGVETTADAGKLELAALQLPKKAGDAEGKAPKMKESDEEEEEEEEEENENEEAEVDENEQVVNGTSTNSTEVDGGNGPSGGDNGEEAEEASVTEAGAEGTTAGVRELTSYGTTTAVLLNGFQQTTPPPEAYGTTSPPARKSSTVEYGEEYEQIGNEYNTAYETYDENNGEPRGDTYRAYEDEYSYYKGHGYEGYEGQDYYYHQ
modifications: biotinylated with Sulfo-NHS-Biotin where used as the labelled protein in competition assays
Consider B1, for which the “nucleating activity of rBSP in a collagen scaffold (hydroxyapatite nucleation)” value in test [2] amounted to 0.025 nmol. In test [1], this molecule displayed a Kd of 22.9 nM.

As a reminder, the Kd is the constant that tells how readily two partners part at equilibrium.

The record behind these values is patent US20090005298A1 (published 2009).
